Target: T1, p75^NTR (Rattus norvegicus, UniProt P07174)
T1 construct: endogenous in cells; host or cells: PC12
T1 sequence (P07174 30-425): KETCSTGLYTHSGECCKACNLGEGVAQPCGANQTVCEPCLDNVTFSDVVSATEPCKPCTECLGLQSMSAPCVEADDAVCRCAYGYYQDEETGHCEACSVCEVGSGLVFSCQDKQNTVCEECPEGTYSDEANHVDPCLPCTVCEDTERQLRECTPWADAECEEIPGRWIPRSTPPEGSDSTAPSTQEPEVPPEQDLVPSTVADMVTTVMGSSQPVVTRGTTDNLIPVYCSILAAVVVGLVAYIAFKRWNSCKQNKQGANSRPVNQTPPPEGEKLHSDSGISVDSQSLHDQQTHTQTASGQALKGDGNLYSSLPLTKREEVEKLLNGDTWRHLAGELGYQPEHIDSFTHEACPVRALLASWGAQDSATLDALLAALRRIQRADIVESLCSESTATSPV
Experiment: [125I]NGF affinity cross-linking to p75NTR
Format: binding
Conditions: PC12 cells, 50 μM R3
Procedure: FIG. 7A illustrates the influence of peptide R3 on affinity cross-linking of TrkA and p75^NTR. Intact PC12 cells were treated with 50 μM R3 for 24 h (preinc.) in medium, harvested with CMF medium, and suspended at a concentration of 10^6·ml^−1 (or 10^7·m^−1 for immunoprecipitation studies) in HKR buffer. Cells were then incubated in the presence or absence of R3 (coinc.) for 15 min at 37° C. and cooled in ice. Cross-linking was performed by incubating cells with 1 nM [^125I]-NGF for 2 h at 4° C., adding EDC ([…]) and NHS (2 mM) or BS^3 (0.4 mM) as indicated, and incubating for 30 min at 25° C. Cells were washed three times in HKR buffer and the pellet dissolved in reducing SDS sample buffer or in lysis buffer (1% NP-40, 10% glycerol, 1 mM PMSF, 10 μg-ml^−1 aprotinin, 1 μg/ml leupeptin, […] o-vanadate in TBS) for immunoprecipitation (lanes 4 and 8). For immunoprecipitation, the cellular debris was removed by centrifugation and the supernatant incubated with 1 μg anti-p75^NTR monoclonal Ab 192 (Cedarlane Laboratories Ltd.) or 1 μg anti-TrkA polyclonal Ab (a gift from Dr. W. Mobley, University of California, San Francisco) for 4 h at 4° C. Immunoprecipates were isolated by incubating with 50 μl of a 50% solution of protein A-SEPHAROSE™ (anti-Trk) or goat anti-mouse agarose (Ab 192) for 2 h at 4° C. Precipitates were washed 3 times in lysis buffer and dissolved in sample buffer. […]

LDALLAALRRIQR [R3]
Affinity cross-linking of [125I]NGF to p75NTR monomers or homodimers, in words: not affected
